B1: TrpE-PLC-SH2[N] (other)
chain: MQTQKPTLELLTCEGAYRDNPTALFHQLCGDRPATLLLESADIDSKDDLKSLLLVDSALRITALGDTVTIQALSGNGEALLALLDNALPAGVESEQSPNCRVLRFPPVSPLLDEDARLCSLSVFDAFRLLQNLLNVPKEEREAMFFGGLFSYDLVAGFEDLPQLSAENNCPDFCFYLAETLMVIDHQKKSTRIQASLFAPNEEEKQRLTARLNELRQQLTEAAPPLPVVSVPHMRCECNQSDEEFGGVVRLLQKAIRAGEIFQVVPSRRFSLPCPSPLAAYYVLKKSNPSPYMFFMQDNDFTLFGASPESSLKYDATSRQIEIWFHGKLGAGRDGRHIAERLLTEYCIETGAPDGSFLVRESETFVGDYTLSFWRNGKVQHCRIHSRQDAGTPKFFLTDNLVFDSLYDLITHYQQVPLRCNEFEMRLSEPV
B2: TrpE-PLC-SH2[N+C] (other)
chain: MQTQKPTLELLTCEGAYRDNPTALFHQLCGDRPATLLLESADIDSKDDLKSLLLVDSALRITALGDTVTIQALSGNGEALLALLDNALPAGVESEQSPNCRVLRFPPVSPLLDEDARLCSLSVFDAFRLLQNLLNVPKEEREAMFFGGLFSYDLVAGFEDLPQLSAENNCPDFCFYLAETLMVIDHQKKSTRIQASLFAPNEEEKQRLTARLNELRQQLTEAAPPLPVVSVPHMRCECNQSDEEFGGVVRLLQKAIRAGEIFQVVPSRRFSLPCPSPLAAYYVLKKSNPSPYMFFMQDNDFTLFGASPESSLKYDATSRQIEIWFHGKLGAGRDGRHIAERLLTEYCIETGAPDGSFLVRESETFVGDYTLSFWRNGKVQHCRIHSRQDAGTPKFFLTDNLVFDSLYDLITHYQQVPLRCNEFEMRLSEPVPQTNAHESKEWYHASLTRAQAEHMLMRVPRDGAFLVRKRNEPNSYAISFRAEGKIKHCRVQQEGQTVMLGNSEFDSLVDLISYYEKHPLYRKMKLRYPI
B3: TrpE-GAP-SH2[N+3+C] (other)
chain: MQTQKPTLELLTCEGAYRDNPTALFHQLCGDRPATLLLESADIDSKDDLKSLLLVDSALRITALGDTVTIQALSGNGEALLALLDNALPAGVESEQSPNCRVLRFPPVSPLLDEDARLCSLSVFDAFRLLQNLLNVPKEEREAMFFGGLFSYDLVAGFEDLPQLSAENNCPDFCFYLAETLMVIDHQKKSTRIQASLFAPNEEEKQRLTARLNELRQQLTEAAPPLPVVSVPHMRCECNQSDEEFGGVVRLLQKAIRAGEIFQVVPSRRFSLPCPSPLAAYYVLKKSNPSPYMFFMQDNDFTLFGASPESSLKYDATSRQIEITNQWYHGKLDRTIAEERLRQAGKSGSYLIRESDRRPGSFVLSFLSQMNVVNHFRIIAMCGDYYIGGRRFSSLSDLIGYYSHVSCLLKGEKLLYPVAPPEPVEDRRRVRAILPYTKVPDTDEISFLKGDMFIVHNELEDGWMWVTNLRTDEQGLIVEDLVEEVGREEDPHEGKIWFHGKISKQEAYNLLMTVGQVCSFLVRPSDNTPGDYSLYFRTNENIQRFKICPTPNNQFMMGGRYYNSIGDIIDHYRKEQIVEGYYLKEPVPMQD

Tests used:
[1] = target: T1, PDGF receptor from BB-PDGF-stimulated Rat-2 cells (activated PDGF-R) (rat (endogenous protein of Rat-2 cells), UniProt Q05030, phosphotyrosine (after stimulation with 75 nM BB-PDGF; sites not stated)); experiment: pull-down from lysate of PDGF-stimulated Rat-2 PLCγ1 cells; competitor: overexpressed cellular PLCγ1
Excerpt: Only a minor fraction of activated PDGF-R complexes with PLCγ1 in vivo. A Rat-2 cell line was genetically modified to overexpress PLCγ1 by tenfold as compared with the endogenous enzyme (Rat-2 PLCγ1). There is a proportionate increase in the amount of PDGF-R precipitated with antibodies to PLCγ1 (anti-PLCγ1) after PDGF stimulation of Rat-2 PLCγ1 cells, in comparison with parental Rat-2 cells. If bacterial PLCγ1 SH2 domains bound to the same site(s) on the PDGF-R as did cellular PLCγ1, then overexpression of PLCγ1 should block binding of bacterial PLCγ1 SH2 domains to activated PDGF-R in vitro. To investigate this Rat-2 cells (FIG. 10, lanes 1, 2, 5 and 6) or a Rat-2 cell line that overexpressed PLCγ1 by tenfold (R2-PLCγ; lanes 3, 4, 7, 8) were stimulated with PDGF (lanes 1, 3, and 5–8) or maintained without PDGF (lanes 2 and 4). Cell lysates were mixed with immobilized TrpE-PLC-SH2[N] (lanes 1 to 4), TrpE-PLC-SH2[N+C] (lanes 5 and 7), or TrpE-GAP-SH2 [N+3+C] ([…]). Samples were washed, separated by gel electrophoresis, and immunoblotted with anti-P.Tyr. Similar results were obtained by blotting with anti-PDGF-R.

[2] = target: T1, PDGF receptor from BB-PDGF-stimulated …; experiment: pull-down of immobilised TrpE fusion from lysate of PDGF-stimulated Rat-2 cells, immunoblot
Procedure: The following procedure was used to investigate binding of TryE fusion proteins that contain GAP, Src, or Crk SH2 domains to PDGF-R in lysates of stimulated Rat-2 cells. Serum-starved Rat-2 cells were stimulated for 5 min at 37° C. with 75 nM BB-PDGF, lysed, and mixed with the indicated immobilized TrpE bacterial fusion proteins. Complexes were washed, resolved on 7.5% SDS-polyacrylamide gels and analyzed by immunoblotting with anti-P.Tyr (8 hour exposure) or with anti-PDGF-R (18 hour exposure).
Because GAP also associates with the PDGF-R, experiments were carried out using bacterial GAP SH2 sequences (see FIG. 7). The GAP SH2[N] domain bound the PDGF-R in a lysate of PDGF-stimulated cells (FIG. 9), but not in unstimulated cells.

Binder | PDGF-R associated, relative to parental PDGF-stimulated Rat-2 cells [1] | fold more efficient binding than expected from the individual SH2 domains [2] [fold]
B1 | 0.33 fraction of the amount from parental Rat-2 cells | 
B2 | 0.33 fraction of the amount from parental Rat-2 cells | 
B3 |  | 3
